Experimental findings from patent US20030138452A1 are described below.

Experiment [1] addresses chemokine receptors of MCP-3 on murine splenocytes and purified T cells. Put plainly: cell-based or functional assay.
The target in experiment [2] is chemokine receptor of IP-10 on murine splenocytes and purified T cells (murine) (UniProt O88410). Put plainly: cell-based or functional assay.
Chain of UniProt O88410 (O88410 whole entry): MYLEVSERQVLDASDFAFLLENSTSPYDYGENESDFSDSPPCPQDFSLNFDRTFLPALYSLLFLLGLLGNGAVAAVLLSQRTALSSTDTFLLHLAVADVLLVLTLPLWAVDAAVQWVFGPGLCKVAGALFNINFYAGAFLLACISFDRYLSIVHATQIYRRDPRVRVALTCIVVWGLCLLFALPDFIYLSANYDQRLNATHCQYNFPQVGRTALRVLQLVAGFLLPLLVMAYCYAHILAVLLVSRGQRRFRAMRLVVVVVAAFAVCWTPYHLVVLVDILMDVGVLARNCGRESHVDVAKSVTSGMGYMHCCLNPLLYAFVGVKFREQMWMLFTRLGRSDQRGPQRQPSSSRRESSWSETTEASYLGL

“MCP3FBscFv38MH (MCP-3 fused to scFv38 of the 38c13 lymphoma) (from UniProt Q03366 24-97)”: the in vitro chemotaxis of murine lymphocytes (48-well microchemotaxis chamber): concentration of maximum activity in experiment [1] turned out to be 100 µg/mL.

B1: IP10FBscFv38MH (murine IP-10 fused to scFv38 of the 38c13 lymphoma) (protein, part only; not given: scFv38 VH and VL, tags, not shown: small tags and cut ends)
chain, part: IPLARTVRCNCIHIDDGPVRMRAIGKLEIIPASLSCPRVEIIATMKKNDEQRCLNPESKTIKNLMKAFSQKRSKRAPEFNDQAPKSLE
B1 returned an in vitro chemotaxis of murine lymphocytes (48-well microchemotaxis chamber): concentration of maximum activity in experiment [2] of 100 µg/mL.
